From the nanobody polyreactivity screen of Harvey et al. (2022)

experiment: yeast display, Sf9 membrane polyspecificity reagent, FACS + sequencing; frameworks hold sequencing errors
How it was run: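 Polyreactivity labels are assigned by the sorting gate from which each nanobody was recovered. The gates were low and high (top ~1%), set on anti-HA fluorescence for expression and streptavidin fluorescence for reagent binding. Before sorting, galactose-induced (36–48 hours) yeast display cells were stained for 1 hour at 4 °C with 10% biotinylated, detergent-solubilized Sf9 membrane reagent.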

Sequence	polyreactivity (PSR sort gate)
QVQLVESGGGLVQAGGSLRLSCAASGSTFRVNAMGWYRQAPGKERELVAAISFSAGGTYYADSVKGRFTISRDNAKNTVYLQMNSLKPADTAVYYCNARYGGWVWSTYDHWGQGTQVTVSS	low polyreactivity
QVQLVESGGGLVQAGGSLRLSCAASGSIFATNAMGWYRQAPGKERELVASISSGGGSTYYADSVKGRFTISRDNAKNTVYLQMNSLKPEDTAVYYCARRIGHGSRPYWLETWRYPYDYWGQGTQVTVSS	low polyreactivity
QVQLVESGGGLVQAGASLRLSCAASGSIFKDNAMGWYRQAPGKERELVAAISWNGGSTYYADSVKGRFTISRDNAKNTVYLHMNSLKPEDTAVYYCATRIYGWSFGSWYKYDYWGQGTQVTVSS	low polyreactivity
QVQLEESGGGLVQAGGSLRLSCAASGSTFYSYVMGWYRQAPGKERELVAAISSIGGSTYYADSVKGRFTISRDNAKNTVYLQMNSLKPEDTAVYYCAAEPPGSTYEGGYWGQGTQVTVSS	low polyreactivity
QVQLVESGGGLVQAGGSLRLSCAASGRTFYRYAMGWYRQAPGKERELVASITRRGGNTYYADSVKGLFTISRDNAKNTVYLQMNSLKPEDTAVYYCAAQSLHPGNWGQGTQVTVSS	high polyreactivity
QVQLVESGGGLVQAGGSLRLSCAASGFTFDYNAMGWYRQAPGKERELVAAISNTGDSTYYADSVKGRFTISRDNAKNTVYLQMNSLKPEDTAVYYCAATSVPRYYYWGQGTQVTVSS	low polyreactivity
QVQLVESGGGLVQAGGSLRLSCAASGGIFYLYAMGWYRQAPGKERELVAAISWSGTSTYYADSVKGRFTISRDNAKNTVYLQMNSLKPEDTAVYYCAADYERYYAKAINYDYWGQGTQVTVSS	low polyreactivity
QVQLVESCGGLVQAGGTLRLRCAASGFTFYPYSMGWYRQAPWKERELVAAITRGGITYYADSVKGRFTISRDYAKNTVYLQMKSLKPEDTAVYYCNAGWYVSYRWYRSDYWGQGTQVTVSS	high polyreactivity
QVQLVESGGGLVQAGGSLRLSCAASGFTFIRNGMGWYRQAPGKERELVAAITTSGSGTYYADSVKGRFTISRDNAKNTVYLQMNSLKPEDTAVYYCATDYRYRSYSRGAHDYWGQGTQVTVSS	low polyreactivity
QDQLVESRGGLVQAGGSLRLSSAASGFTLVVNAMGWYRQAPGKERELVAAITSRCGGTYYADSVKGRFTISRDKANNSVYLQMNSLKPEDTAVYYCAAPSLIVSTHRYGYWGQGTEVTVSS	low polyreactivity
QVQLVESGGGLVQAGGSLRLSCAASGRTFSQYAMGWYRQAPGKERELVAAITSAGSTYYADSVKGRFTISRDNAKNTVYLQMKSLKPEDTAVYYCNARGPSRYTGYSSYYWGQGTQVTVSS	high polyreactivity
QVQLVESGGGLVQAGGSLRLSCAASGRTFRPYAMGWDRQAPGKEREFVAAIRSSGDSTYYADSVKGRFTISRDNAKNTVYLQMNSLKPEDTAVYYCAADVYRYRVRGMNYWGQGTQVTVSS	high polyreactivity
QVQLVESGGGLVQAGGSLSLICAASGYTLKYYAMGWYRQAPGKERELVAVISRGGSTYYADSVKGRFTISRDNAKNTVYLQMNSLNPEDTAVYYCAKRPTQGYYPYGYWGQGTQVTVSS	high polyreactivity
QVQLVESGGGLVQAGGSLRLSCAASGFTFWWYAMGWYRQAPGKERQLVAGITSGASTYYADSVKGRYTISRDNAKNTVYLQMNSLKPEDTAVYYCAADWLGWYQPYDYWGQGTQVTVSS	low polyreactivity
QVQLVESGGGLVQAGGRLRLSCAASGRIFKFYAMGWYRQAPGKERELVAAIRRGGTTNYADSVKGRFTISRDNAKNTFYLQMNSLKPEDTAVYFCAADGWYRVLTGLVSSWKYWGQGTQVTVSS	high polyreactivity
QVQLVESGGGLVQAGGSLRLSCAASGRTFQRNAMGWYIQAPGKERELVATITTNGGSTYYADSVKGRFTISRDNAKNTVYLQMNSLKPEDTAVYYCAAPFNPRVRTLRSVRMDYWGQGTQVTVSS	low polyreactivity
